Key:
[1] = biological target: T1, recombinant Nogo-A fragment NI-Fr2 (rat, UniProt Q9JK11 233-941, labelled with digoxigenin (molar ratio 5:1) in the colony screening assay); assay: ELISA, wells coated with NI-Fr2, bound Fab detected with anti-human Ckappa antibody-alkaline phosphatase, delta A405/delta t
T1 construct: Truncated rat Nogo-A with C-terminal Strep-tag, made in the E. coli periplasm; also called MI-Fr2; wild-type NI-Fr2
T1 sequence: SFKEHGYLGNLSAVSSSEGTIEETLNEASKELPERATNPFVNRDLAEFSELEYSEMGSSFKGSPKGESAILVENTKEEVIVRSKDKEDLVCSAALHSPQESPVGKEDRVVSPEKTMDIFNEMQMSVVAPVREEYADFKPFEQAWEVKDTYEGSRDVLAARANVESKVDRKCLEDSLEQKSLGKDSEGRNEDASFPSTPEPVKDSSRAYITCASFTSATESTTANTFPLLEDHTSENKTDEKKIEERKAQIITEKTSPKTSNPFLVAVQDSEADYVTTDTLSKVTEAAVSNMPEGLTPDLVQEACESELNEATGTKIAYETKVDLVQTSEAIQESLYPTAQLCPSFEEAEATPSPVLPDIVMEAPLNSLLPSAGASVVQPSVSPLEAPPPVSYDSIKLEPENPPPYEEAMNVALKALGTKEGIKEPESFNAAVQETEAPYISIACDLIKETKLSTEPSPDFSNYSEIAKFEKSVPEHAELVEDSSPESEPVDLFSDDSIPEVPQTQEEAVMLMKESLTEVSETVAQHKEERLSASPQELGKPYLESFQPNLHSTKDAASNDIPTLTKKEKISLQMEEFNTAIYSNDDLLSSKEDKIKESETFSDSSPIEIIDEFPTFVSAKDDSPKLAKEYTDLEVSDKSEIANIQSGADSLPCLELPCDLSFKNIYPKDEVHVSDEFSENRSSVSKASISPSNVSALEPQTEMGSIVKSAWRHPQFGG
Procedure: Antigen-binding activity of the mutant Fab fragments was subsequently tested by ELISA using the recombinant NI-Fr2 for coating of the microtitre plate wells (FIG. 2).
ELISA was carried out in a 96 well microtitre plate (Becton Dickinson, Heidelberg, Germany) at ambient temperature with incubation steps of 1 h unless otherwise stated. Three washing steps with PBS/T were used after each incubation, and residual liquid was removed thoroughly. The wells were coated for 4 h with 50 μl of a solution of MI-Fr2 at concentrations between 180 and 200 μg/ml in PBS buffer and then blocked with 200 μl 3% (w/v) BSA, 0.5% (v/v) Tween 20 in PBS. After washing, 50 μl of the purified recombinant Fab fragment was applied at a dilution series in PBS/T. The wells were then incubated with 50 μl anti-human Cκ antibody conjugated with alkaline phosphatase (Sigma), diluted 1:1000 in PBS/T. Signals were finally developed in the presence of p-nitrophenyl phosphate (Voss and Skerra, (1997) Protein Eng., 10, 975-982). Enzymatic activity was measured at 25° C. as the change in absorbance at 405 nm per min with a SpectraMAX 250 instrument (Molecular Devices, Sunnyvale, Calif.). The data were corrected for background values determined in wells that were merely coated with BSA and fitted by non-linear least squares regression as described by Voss and Skerra, supra

BSA = biological target: T2, BSA (bovine, UniProt P02769 25-607); assay: ELISA; BSA as antigen
T2 construct: Control antigen

[2] = biological target: T3, recombinant Nogo-A fragment NI-Fr4 (rat, UniProt Q9JK11 233-941); assay: SPR (Biacore X); NI-Fr4 on Ni/NTA chip via His6, Fab (pASK107, Strep-tag II) at 0.25-6.8 µM, equilibrium fit
T3 construct: Truncated rat Nogo-A with N-terminal Strep-tag II and C-terminal His6
T3 sequence: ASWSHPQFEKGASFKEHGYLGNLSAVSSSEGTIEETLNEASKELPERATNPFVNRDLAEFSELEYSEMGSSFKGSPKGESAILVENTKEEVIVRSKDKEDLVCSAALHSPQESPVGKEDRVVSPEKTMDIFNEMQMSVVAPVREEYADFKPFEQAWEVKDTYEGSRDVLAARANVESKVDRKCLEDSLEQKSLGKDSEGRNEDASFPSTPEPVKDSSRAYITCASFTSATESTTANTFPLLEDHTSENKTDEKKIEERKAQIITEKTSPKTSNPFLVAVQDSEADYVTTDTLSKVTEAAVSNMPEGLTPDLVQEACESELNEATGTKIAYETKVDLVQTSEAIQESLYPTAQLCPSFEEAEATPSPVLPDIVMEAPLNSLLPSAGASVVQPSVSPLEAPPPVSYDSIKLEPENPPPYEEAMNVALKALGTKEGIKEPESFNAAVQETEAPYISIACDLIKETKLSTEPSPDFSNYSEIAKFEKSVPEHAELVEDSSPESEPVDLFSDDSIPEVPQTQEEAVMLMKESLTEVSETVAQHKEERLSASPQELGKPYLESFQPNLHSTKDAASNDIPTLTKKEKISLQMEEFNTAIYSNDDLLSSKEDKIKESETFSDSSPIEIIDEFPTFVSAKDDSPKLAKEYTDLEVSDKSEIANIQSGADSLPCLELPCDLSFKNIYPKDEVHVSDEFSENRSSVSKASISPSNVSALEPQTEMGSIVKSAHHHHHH
Procedure: (§1) The thermodynamic affinity for the recombinant Nogo-A fragment NI-Fr4 was determined both for the II.1.8 mutant and for the wild-type IN-1 Fab fragment using the method of real time surface plasmon resonance (SPR) on a Biacore-X® system equipped with an Ni/NTA-derivatized sensor chip® (Biacore AB, Uppsala, Sweden). PBS containing 0.005% (v/v) surfactant P20 was used as continuous flow buffer as well as for dilution of proteins. Analysis was performed at 25° C. using a flow rate of 35 μl/min.
(§2) Then the Fab fragment (produced by means of the vector pASK107 and purified via the Strep-tag II; see Example 1)) was injected at a defined concentration (between 0.25 and 6.8 μM) for 2 minutes, followed by buffer flow for 4 minutes. The chip surface was regenerated using 70 μl 0.35 M EDTA, pH 8.0 in flow buffer prior to the next measurement. Each time-dependent binding isotherm of the Fab fragment was corrected for the background signal that was detected in the flow channel without NI-Fr4 using BIAevaluation software (Version 3.0). Resonance unit values for the bound Fab fragment at equilibrium for each applied concentration were then deduced and fitted (Voss and Skerra, supra) by non-linear least squares regression using an equation of the type y=a*x/(b+x). […]

[3] = biological target: T3, recombinant Nogo-A fragment NI-Fr4; assay: SPR (Biacore X); NI-Fr4 on Ni/NTA chip, equilibrium fit
Procedure: as §1, §2

T2 sequence (P02769 25-607 limits assumed): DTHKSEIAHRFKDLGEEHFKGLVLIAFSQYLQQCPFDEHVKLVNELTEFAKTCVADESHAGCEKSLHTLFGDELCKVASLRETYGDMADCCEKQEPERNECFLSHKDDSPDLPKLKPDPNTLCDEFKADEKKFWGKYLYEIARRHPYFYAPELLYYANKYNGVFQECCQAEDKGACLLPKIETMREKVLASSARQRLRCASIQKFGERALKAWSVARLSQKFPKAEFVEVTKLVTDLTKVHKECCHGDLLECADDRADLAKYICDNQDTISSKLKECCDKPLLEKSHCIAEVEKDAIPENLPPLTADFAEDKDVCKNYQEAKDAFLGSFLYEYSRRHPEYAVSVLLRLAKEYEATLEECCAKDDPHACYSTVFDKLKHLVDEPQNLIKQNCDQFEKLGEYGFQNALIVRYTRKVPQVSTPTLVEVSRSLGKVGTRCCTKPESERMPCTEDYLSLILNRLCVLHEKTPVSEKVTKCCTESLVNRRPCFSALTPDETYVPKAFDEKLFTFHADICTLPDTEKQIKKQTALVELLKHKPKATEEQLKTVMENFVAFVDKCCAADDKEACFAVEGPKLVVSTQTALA

B1: I.2.6 Fab fragment (IN-1 mutant) (Fab, V domains shown)
VH: EVKLHESGPGLVRPGTSVKISCKASGYTFTNYWLGWVKQRPGHGLEWIGDIYPGGGYTNYNEKFKGKATLTADTSSSTAYMQLSSLTSEDSAVYFCARFYYGSSYWYFDVWGQGTTVTVSS
VL: DIELTQSPAIMAASVGETVTITCGASENIYGALNWYQRKQGKSPQLLIYGATNLADGMSSRFSGSGSGRQYSLKISSLHPDDVATYYCQNVLRVPCTFGAGTKLEIK
notes: Chimeric Fab, human IgG1/kappa constant domains; also called mutant I.2.6; original I.2.6 Fab fragment
- binding result [1]: binds
- binding result (BSA): no binding

B2: II.1.8 Fab fragment (Fab, V domains shown)
VH: EVKLHESGPGLVRPGTSVKISCKASGYTFTNYWLGWVKQRPGHGLEWIGDIYPGGGYTNYNEKFKGKATLTADTSSSTAYMQLSSLTSEDSAVYFCARFYYGSSYWYFDVWGQGTTVTVSS
VL: DIELTQSPAIMAASVGETVTITCGASENIYGALNWYQRKQGKSPQLLIYGATNLADGMSSRFSGSGSGRQYSLKISSLHPDDVATYYCQNINRVPVTFGAGTKLEIK
notes: also called II.1.8 mutant; antibody fragment II.1.8
- Kd [2]: 1.04 µM
- fold improvement of KD over the wild-type IN-1 Fab fragment [3]: 8 fold

Source: patent publication US20060287501A1 (Pieris, published 2006)
